System: Bad (bacterial DNA2-like helicase-nuclease), wild type (Geobacillus stearothermophilus 10 (DSM 13240))
Experiment: ATPase stimulation titration
Conditions: saturating ATP; Buffers of the ATPase and tweezers assays not given in the material; tweezers at room temperature, low free Mg2+; helicase assays 20 mM Tris-HCl pH 7.5, 2 mM …

CAAGCGGGCGCCTCCCG [ODN1 (17mer ssDNA)]
K half (uM nucleotides): 1.6
